Experimental data taken from publication PMC9333443, “Structural insights into Pot1-ssDNA, Pot1-Tpz1 and Tpz1-Ccq1 Interactions within fission yeast shelterin complex” (PLoS Genetics, 2022).

Experiments:
[1] = target: T1, Ccq1TAD (Ccq1 123-439 with deletion of residues 199-215), purified (S. pombe, UniProt Q10432 123-439, deletion of residues 199–215); assay: crystal structure; Tpz1CBM-Ccq1TAD complex, SAD, 2.4 Å; sitting drop at 4°C, 15% PEG4000, 200 mM potassium chloride, 50 mM magnesium chloride, 50 mM Tris-HCl pH 7.8; settings: both partners purified
T1 construct: Two copies stand in the 2:2 complex with Tpz1CBM; not shown: His6, N-terminal, cleaved; SUMO, N-terminal, cleaved
T1 sequence (looked up): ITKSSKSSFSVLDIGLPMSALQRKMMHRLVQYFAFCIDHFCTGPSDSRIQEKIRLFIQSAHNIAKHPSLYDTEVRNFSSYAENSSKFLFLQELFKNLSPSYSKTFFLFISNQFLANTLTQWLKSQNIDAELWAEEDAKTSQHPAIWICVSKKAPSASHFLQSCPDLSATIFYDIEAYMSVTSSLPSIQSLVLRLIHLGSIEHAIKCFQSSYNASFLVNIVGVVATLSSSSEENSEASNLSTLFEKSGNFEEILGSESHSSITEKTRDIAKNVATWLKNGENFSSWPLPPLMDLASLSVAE

[2] = target: T2, Ccq1 (residues 123-439), without the deletion (S. pombe, UniProt Q10432 123-439); assay: SEC; co-expressed and co-purified complexes on gel filtration (calibrated for Tpz1CBM-Ccq1TAD); 25 mM Tris-HCl pH 8.0, 150 mM NaCl, 5 mM dithiothreitol; settings: both partners purified
T2 construct: The methods describe only the deleted form; this undeleted form gave crystals that diffracted to about 4.0 Å; also called N-terminal region of Ccq1
T2 sequence (looked up): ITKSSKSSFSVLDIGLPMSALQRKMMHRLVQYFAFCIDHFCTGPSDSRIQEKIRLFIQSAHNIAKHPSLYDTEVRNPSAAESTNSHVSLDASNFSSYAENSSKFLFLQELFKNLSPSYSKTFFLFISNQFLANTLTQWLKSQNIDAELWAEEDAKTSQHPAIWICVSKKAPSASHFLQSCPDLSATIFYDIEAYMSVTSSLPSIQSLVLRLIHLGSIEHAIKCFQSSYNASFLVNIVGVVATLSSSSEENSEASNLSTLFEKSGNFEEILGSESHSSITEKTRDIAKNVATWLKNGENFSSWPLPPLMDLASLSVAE

Pot1DBD [3] = target: T3, Pot1DBD (Schizosaccharomyces pombe, UniProt O13988 2-339); assay: ITC; Kd only in figure; ITC: 25 mM Tris-HCl pH 8.0, 150 mM NaCl, 20 C; gel filtration (complex purification): 25 mM Tris-HCl pH 8.0, 150 mM NaCl, 5 mM DTT; settings: protein: recombinant; tags: His6-SUMO (N-terminal, removed with ULP1); single strand
T3 sequence: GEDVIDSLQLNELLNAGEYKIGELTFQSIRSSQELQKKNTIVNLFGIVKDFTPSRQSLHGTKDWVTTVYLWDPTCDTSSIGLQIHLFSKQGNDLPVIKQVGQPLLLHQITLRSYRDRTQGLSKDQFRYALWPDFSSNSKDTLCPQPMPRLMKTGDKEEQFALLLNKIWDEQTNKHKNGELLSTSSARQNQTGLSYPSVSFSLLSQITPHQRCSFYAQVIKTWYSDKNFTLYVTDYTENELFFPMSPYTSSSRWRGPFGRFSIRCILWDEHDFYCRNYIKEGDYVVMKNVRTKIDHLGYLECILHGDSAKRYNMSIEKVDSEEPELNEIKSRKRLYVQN

Pot1 full length;Tpz1PIM = target: T4, Pot1 full length;Tpz1PIM (Schizosaccharomyces …, UniProt O13988;O14246 1-555;164-240, |); assay: complex reconstitution; stable complex after mixing with Tel18; ITC: 25 mM Tris-HCl pH 8.0, 150 mM NaCl, 20 C; gel filtration (complex purification): 25 mM Tris-HCl pH 8.0, 150 mM NaCl, 5 mM DTT; settings: protein: recombinant;recombinant, tags: His6-SUMO/GST system, co-expressed with Tpz1PIM;His6-SUMO/GST system, copies: 1;1, single strand
T4 sequence 1: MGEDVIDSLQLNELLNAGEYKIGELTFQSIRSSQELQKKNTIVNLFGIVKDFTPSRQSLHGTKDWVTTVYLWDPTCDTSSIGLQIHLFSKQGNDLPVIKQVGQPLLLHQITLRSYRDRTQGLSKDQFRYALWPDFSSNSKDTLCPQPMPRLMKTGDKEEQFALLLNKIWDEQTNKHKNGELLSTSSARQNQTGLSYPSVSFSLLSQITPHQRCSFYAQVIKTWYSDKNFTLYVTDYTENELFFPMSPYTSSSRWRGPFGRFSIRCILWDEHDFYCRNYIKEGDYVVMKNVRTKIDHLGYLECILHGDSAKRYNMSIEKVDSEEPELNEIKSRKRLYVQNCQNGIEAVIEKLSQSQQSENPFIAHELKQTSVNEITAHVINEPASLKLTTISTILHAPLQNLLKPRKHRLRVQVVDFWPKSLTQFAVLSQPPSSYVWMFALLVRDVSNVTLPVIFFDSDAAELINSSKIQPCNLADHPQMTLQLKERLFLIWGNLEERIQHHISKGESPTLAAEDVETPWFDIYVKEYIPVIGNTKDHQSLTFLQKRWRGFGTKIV
T4 sequence 2: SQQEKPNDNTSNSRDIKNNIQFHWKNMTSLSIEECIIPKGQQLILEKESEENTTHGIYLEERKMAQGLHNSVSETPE

Pot1DBD [4] = target: T3, Pot1DBD; assay: gel filtration; 1:1 stoichiometry; ITC: 25 mM Tris-HCl pH 8.0, 150 mM NaCl, 20 C; gel filtration (complex purification): 25 mM Tris-HCl pH 8.0, 150 mM NaCl, 5 mM DTT; settings: protein: recombinant; tags: His6-SUMO (N-terminal, removed with ULP1); single strand

B1: Tpz1CBM (Tpz1 425-470), purified (domain or fragment, S. pombe, UniProt O14246 425-470, looked up)
chain: EQIELEYKRKPIPDYDFMKGLETTLQELYVEHQSKKRRLELFQLTN
notes: not shown: GST, N-terminal, cleaved
**Q.** Which results are given for B1?
**A.** stoichiometry N [1]: 1 Tpz1CBM per Ccq1TAD (printed as 2:2); binding result [2]: binds

B2: Tel18 (ssDNA)
DNA: GGTTACAGGGGTTACGGT
**Q.** Does B2 bind (Pot1DBD [3])?
**A.** binds

**Q.** Does B2 bind (Pot1 full length;Tpz1PIM)?
**A.** binds

B3: Tel15 (ssDNA)
DNA: GGTTACGGTTACGGT
**Q.** Does B3 bind (Pot1DBD [3])?
**A.** binds

B4: Tel17 (ssDNA)
DNA: GGTTACAGGGTTACGGT
**Q.** Does B4 bind (Pot1DBD [4])?
**A.** binds
